Results published in the supplement of paper PMC10724198.
± gives the standard deviation of the averaged measurements.

Assays:
Saccharomyces cerevisiae [1] = assay: protein stability index of tFT-peptide fusion (C-terminal peptide) (PSI (0-1 scale)); higher = more stable (slower turnover); details: genetic background: wild type; temperature: 30 C
Saccharomyces cerevisiae [2] = assay: as above
Method: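 MPS profiling in S. cerevisiae of the tFT-X12 degron library: putative degron peptides plus stable controls, 12 aa, fused to the C-terminus of a sfGFP-mCherry timer. Cells are FACS-sorted into 8 mCherry/sfGFP bins and deep-sequenced. PSI runs from 0 (unstable) to 1 (stable). Backgrounds are wild type, das1Δ and doa10Δ at 30 °C, and wild type, das1Δ, cdc34-1 and cdc53-1 at 37 °C; 2-3 technical replicates each.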

[3] = genetic background: cdc34-1, temperature: 37 C
[4] = genetic background: cdc53-1, temperature: 37 C
[5] = genetic background: das1 deletion, temperature: 30 C
[6] = genetic background: das1 deletion, temperature: 37 C
[7] = genetic background: doa10 deletion, temperature: 30 C
[8] = genetic background: wild type, temperature: 30 C
[9] = genetic background: wild type, temperature: 37 C
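Further: PSI is a weighted mean of sequencing reads over stability bins, variants kept only with over 10 reads, mCherry proximal and sfGFP distal, peptide attached via GGGS linker.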

## GGSLWLVHLKTI
Saccharomyces cerevisiae [1]
  protein stability index: 0.181 ± 0.044
Saccharomyces cerevisiae [2]; [3]
  protein stability index: 0.604 ± 0.059
Saccharomyces cerevisiae [2]; [4]
  protein stability index: 0.761 ± 0.038
Saccharomyces cerevisiae [2]; [5]
  protein stability index: 0.633 ± 0.035
Saccharomyces cerevisiae [2]; [6]
  protein stability index: 0.718 ± 0.025
Saccharomyces cerevisiae [2]; [7]
  protein stability index: 0.118 ± 0.026
Saccharomyces cerevisiae [2]; [8]
  protein stability index: 0.158 ± 0.011
Saccharomyces cerevisiae [2]; [9]
  protein stability index: 0.275 ± 0.082

## VLGFRPLVFLCF
Saccharomyces cerevisiae [1]
  protein stability index: 0.3239 ± 0.0027
Saccharomyces cerevisiae [2]; [3]
  protein stability index: 0.235 ± 0.058
Saccharomyces cerevisiae [2]; [4]
  protein stability index: 0.252 ± 0.029
Saccharomyces cerevisiae [2]; [5]
  protein stability index: 0.324 ± 0.029
Saccharomyces cerevisiae [2]; [6]
  protein stability index: 0.4637 ± 0.0028
Saccharomyces cerevisiae [2]; [7]
  protein stability index: 0.392 ± 0.011
Saccharomyces cerevisiae [2]; [8]
  protein stability index: 0.304 ± 0.013
Saccharomyces cerevisiae [2]; [9]
  protein stability index: 0.392 ± 0.0027

## KMKGLINKRKES
Saccharomyces cerevisiae [1]
  protein stability index: 0.219 ± 0.0027
Saccharomyces cerevisiae [2]; [3]
  protein stability index: 0.533 ± 0.05
Saccharomyces cerevisiae [2]; [4]
  protein stability index: 0.657 ± 0.01
Saccharomyces cerevisiae [2]; [5]
  protein stability index: 0.655 ± 0.037
Saccharomyces cerevisiae [2]; [6]
  protein stability index: 0.68 ± 0.015
Saccharomyces cerevisiae [2]; [7]
  protein stability index: 0.146 ± 0.0029
Saccharomyces cerevisiae [2]; [8]
  protein stability index: 0.12 ± 0.05
Saccharomyces cerevisiae [2]; [9]
  protein stability index: 0.233 ± 0.027

## GFSVFSHSVWVR
Saccharomyces cerevisiae [1]
  protein stability index: 0.313 ± 0.014
Saccharomyces cerevisiae [2]; [3]
  protein stability index: 0.133 ± 0.044
Saccharomyces cerevisiae [2]; [4]
  protein stability index: 0.0797 ± 0.0059
Saccharomyces cerevisiae [2]; [5]
  protein stability index: 0.19 ± 0.032
Saccharomyces cerevisiae [2]; [6]
  protein stability index: 0.271 ± 0.012
Saccharomyces cerevisiae [2]; [7]
  protein stability index: 0.437 ± 0.016
Saccharomyces cerevisiae [2]; [8]
  protein stability index: 0.194 ± 0.011
Saccharomyces cerevisiae [2]; [9]
  protein stability index: 0.238 ± 0.013

## YLCFVVSCGVLR
Saccharomyces cerevisiae [1]
  protein stability index: 0.383 ± 0.086
Saccharomyces cerevisiae [2]; [3]
  protein stability index: 0.421 ± 0.0051
Saccharomyces cerevisiae [2]; [4]
  protein stability index: 0.475 ± 0.026
Saccharomyces cerevisiae [2]; [5]
  protein stability index: 0.327 ± 0.031
Saccharomyces cerevisiae [2]; [6]
  protein stability index: 0.529 ± 0.0087
Saccharomyces cerevisiae [2]; [7]
  protein stability index: 0.295 ± 0.018
Saccharomyces cerevisiae [2]; [8]
  protein stability index: 0.313 ± 0.017
Saccharomyces cerevisiae [2]; [9]
  protein stability index: 0.5035 ± 0.0016

## ACIFDMMWFWLF
Saccharomyces cerevisiae [1]
  protein stability index: 0.499 ± 0.032
Saccharomyces cerevisiae [2]; [3]
  protein stability index: 0.692 ± 0.068
Saccharomyces cerevisiae [2]; [4]
  protein stability index: 0.721 ± 0.008
Saccharomyces cerevisiae [2]; [5]
  protein stability index: 0.577 ± 0.034
Saccharomyces cerevisiae [2]; [6]
  protein stability index: 0.75 ± 0.0093
Saccharomyces cerevisiae [2]; [7]
  protein stability index: 0.427 ± 0.02
Saccharomyces cerevisiae [2]; [8]
  protein stability index: 0.46 ± 0.02
Saccharomyces cerevisiae [2]; [9]
  protein stability index: 0.573 ± 0.006

## KKNLTHSIRVQA
Saccharomyces cerevisiae [1]
  protein stability index: 0.505 ± 0.025
Saccharomyces cerevisiae [2]; [3]
  protein stability index: 0.62 ± 0.028
Saccharomyces cerevisiae [2]; [4]
  protein stability index: 0.717 ± 0.0094
Saccharomyces cerevisiae [2]; [5]
  protein stability index: 0.567 ± 0.033
Saccharomyces cerevisiae [2]; [6]
  protein stability index: 0.696 ± 0.011
Saccharomyces cerevisiae [2]; [7]
  protein stability index: 0.352 ± 0.017
Saccharomyces cerevisiae [2]; [8]
  protein stability index: 0.377 ± 0.021
Saccharomyces cerevisiae [2]; [9]
  protein stability index: 0.585 ± 0.015

## MPQSLKKMVFLA
Saccharomyces cerevisiae [1]
  protein stability index: 0.1516 ± 0.0014
Saccharomyces cerevisiae [2]; [3]
  protein stability index: 0.431 ± 0.057
Saccharomyces cerevisiae [2]; [4]
  protein stability index: 0.628 ± 0.022
Saccharomyces cerevisiae [2]; [5]
  protein stability index: 0.61 ± 0.032
Saccharomyces cerevisiae [2]; [6]
  protein stability index: 0.6621 ± 0.005
Saccharomyces cerevisiae [2]; [7]
  protein stability index: 0.0709 ± 0.025
Saccharomyces cerevisiae [2]; [8]
  protein stability index: 0.0847 ± 0.0032
Saccharomyces cerevisiae [2]; [9]
  protein stability index: 0.0875 ± 0.024

## TYSVIPSLALLP
Saccharomyces cerevisiae [1]
  protein stability index: 0.224 ± 0.051
Saccharomyces cerevisiae [2]; [3]
  protein stability index: 0.664 ± 0.03
Saccharomyces cerevisiae [2]; [4]
  protein stability index: 0.727 ± 0.013
Saccharomyces cerevisiae [2]; [5]
  protein stability index: 0.643 ± 0.014
Saccharomyces cerevisiae [2]; [6]
  protein stability index: 0.7298 ± 0.0043
Saccharomyces cerevisiae [2]; [7]
  protein stability index: 0.648 ± 0.012
Saccharomyces cerevisiae [2]; [8]
  protein stability index: 0.652 ± 0.032
Saccharomyces cerevisiae [2]; [9]
  protein stability index: 0.704 ± 0.022

## HPRPRPPPLPPP
Saccharomyces cerevisiae [1]
  protein stability index: 0.508 ± 0.032
Saccharomyces cerevisiae [2]; [3]
  protein stability index: 0.4633 ± 0.00058
Saccharomyces cerevisiae [2]; [4]
  protein stability index: 0.546 ± 0.019
Saccharomyces cerevisiae [2]; [5]
  protein stability index: 0.504 ± 0.006
Saccharomyces cerevisiae [2]; [6]
  protein stability index: 0.523 ± 0.021
Saccharomyces cerevisiae [2]; [7]
  protein stability index: 0.544 ± 0.0083
Saccharomyces cerevisiae [2]; [8]
  protein stability index: 0.487 ± 0.03
Saccharomyces cerevisiae [2]; [9]
  protein stability index: 0.4943 ± 0.0044

## DLVGRETRMRLN
Saccharomyces cerevisiae [1]
  protein stability index: 0.383 ± 0.0088
Saccharomyces cerevisiae [2]; [3]
  protein stability index: 0.6744 ± 0.0063
Saccharomyces cerevisiae [2]; [4]
  protein stability index: 0.70449 ± 0.00037
Saccharomyces cerevisiae [2]; [5]
  protein stability index: 0.633 ± 0.039
Saccharomyces cerevisiae [2]; [6]
  protein stability index: 0.7221 ± 0.0045
Saccharomyces cerevisiae [2]; [7]
  protein stability index: 0.202 ± 0.01
Saccharomyces cerevisiae [2]; [8]
  protein stability index: 0.263 ± 0.022
Saccharomyces cerevisiae [2]; [9]
  protein stability index: 0.526 ± 0.097

## LVAGFVFIFFYR
Saccharomyces cerevisiae [1]
  protein stability index: 0.372 ± 0.059
Saccharomyces cerevisiae [2]; [3]
  protein stability index: 0.356 ± 0.053
Saccharomyces cerevisiae [2]; [4]
  protein stability index: 0.488 ± 0.021
Saccharomyces cerevisiae [2]; [5]
  protein stability index: 0.339 ± 0.033
Saccharomyces cerevisiae [2]; [6]
  protein stability index: 0.49 ± 0.018
Saccharomyces cerevisiae [2]; [7]
  protein stability index: 0.298 ± 0.0043
Saccharomyces cerevisiae [2]; [8]
  protein stability index: 0.319 ± 0.022
Saccharomyces cerevisiae [2]; [9]
  protein stability index: 0.46 ± 0.0078

## HFLLAFMLCFGQ
Saccharomyces cerevisiae [1]
  protein stability index: 0.466 ± 0.044
Saccharomyces cerevisiae [2]; [3]
  protein stability index: 0.4512 ± 0.0045
Saccharomyces cerevisiae [2]; [4]
  protein stability index: 0.476 ± 0.0097
Saccharomyces cerevisiae [2]; [5]
  protein stability index: 0.359 ± 0.039
Saccharomyces cerevisiae [2]; [6]
  protein stability index: 0.504 ± 0.0076
Saccharomyces cerevisiae [2]; [7]
  protein stability index: 0.336 ± 0.011
Saccharomyces cerevisiae [2]; [8]
  protein stability index: 0.356 ± 0.021
Saccharomyces cerevisiae [2]; [9]
  protein stability index: 0.476 ± 0.024

## ISAVLFFLYLSF
Saccharomyces cerevisiae [1]
  protein stability index: 0.308 ± 0.025
Saccharomyces cerevisiae [2]; [3]
  protein stability index: 0.163 ± 0.008
Saccharomyces cerevisiae [2]; [4]
  protein stability index: 0.108 ± 0.019
Saccharomyces cerevisiae [2]; [5]
  protein stability index: 0.24 ± 0.018
Saccharomyces cerevisiae [2]; [6]
  protein stability index: 0.326 ± 0.0042
Saccharomyces cerevisiae [2]; [7]
  protein stability index: 0.459 ± 0.035
Saccharomyces cerevisiae [2]; [8]
  protein stability index: 0.246 ± 0.017
Saccharomyces cerevisiae [2]; [9]
  protein stability index: 0.272 ± 0.009

## VGVVVAIGLVRM
Saccharomyces cerevisiae [1]
  protein stability index: 0.4849 ± 0.0037
Saccharomyces cerevisiae [2]; [3]
  protein stability index: 0.508 ± 0.013
Saccharomyces cerevisiae [2]; [4]
  protein stability index: 0.575 ± 0.032
Saccharomyces cerevisiae [2]; [5]
  protein stability index: 0.381 ± 0.041
Saccharomyces cerevisiae [2]; [6]
  protein stability index: 0.546 ± 0.0048
Saccharomyces cerevisiae [2]; [7]
  protein stability index: 0.3423 ± 0.00054
Saccharomyces cerevisiae [2]; [8]
  protein stability index: 0.377 ± 0.03
Saccharomyces cerevisiae [2]; [9]
  protein stability index: 0.512 ± 0.019

## SDVLVVWVFFCR
Saccharomyces cerevisiae [1]
  protein stability index: 0.405 ± 0.043
Saccharomyces cerevisiae [2]; [3]
  protein stability index: 0.292 ± 0.0075
Saccharomyces cerevisiae [2]; [4]
  protein stability index: 0.4196 ± 0.0033
Saccharomyces cerevisiae [2]; [5]
  protein stability index: 0.26 ± 0.032
Saccharomyces cerevisiae [2]; [6]
  protein stability index: 0.466 ± 0.013
Saccharomyces cerevisiae [2]; [7]
  protein stability index: 0.216 ± 0.029
Saccharomyces cerevisiae [2]; [8]
  protein stability index: 0.263 ± 0.037
Saccharomyces cerevisiae [2]; [9]
  protein stability index: 0.435 ± 0.0063

## LLCLLLVPQPHR
Saccharomyces cerevisiae [1]
  protein stability index: 0.0268 ± 0.019
Saccharomyces cerevisiae [2]; [3]
  protein stability index: 0.604 ± 0.015
Saccharomyces cerevisiae [2]; [4]
  protein stability index: 0.66 ± 0.011
Saccharomyces cerevisiae [2]; [5]
  protein stability index: 0.5965 ± 0.0049
Saccharomyces cerevisiae [2]; [6]
  protein stability index: 0.651 ± 0.017
Saccharomyces cerevisiae [2]; [7]
  protein stability index: 0.574 ± 0.027
Saccharomyces cerevisiae [2]; [8]
  protein stability index: 0.584 ± 0.019
Saccharomyces cerevisiae [2]; [9]
  protein stability index: 0.6376 ± 0.003

## DFVFFLVSVRFR
Saccharomyces cerevisiae [1]
  protein stability index: 0.284 ± 0.081
Saccharomyces cerevisiae [2]; [3]
  protein stability index: 0.103 ± 0.039
Saccharomyces cerevisiae [2]; [4]
  protein stability index: 0.216 ± 0.059
Saccharomyces cerevisiae [2]; [5]
  protein stability index: 0.177 ± 0.037
Saccharomyces cerevisiae [2]; [6]
  protein stability index: 0.32 ± 0.017
Saccharomyces cerevisiae [2]; [7]
  protein stability index: 0.15 ± 0.013
Saccharomyces cerevisiae [2]; [8]
  protein stability index: 0.178 ± 0.03
Saccharomyces cerevisiae [2]; [9]
  protein stability index: 0.284 ± 0.0058

## KIKQIKINNKIN
Saccharomyces cerevisiae [1]
  protein stability index: 0.157 ± 0.0073
Saccharomyces cerevisiae [2]; [3]
  protein stability index: 0.43 ± 0.0033
Saccharomyces cerevisiae [2]; [4]
  protein stability index: 0.654 ± 0.13
Saccharomyces cerevisiae [2]; [5]
  protein stability index: 0.703 ± 0.026
Saccharomyces cerevisiae [2]; [6]
  protein stability index: 0.758 ± 0.043
Saccharomyces cerevisiae [2]; [7]
  protein stability index: 0.0896 ± 0.034
Saccharomyces cerevisiae [2]; [8]
  protein stability index: 0.092 ± 0.032
Saccharomyces cerevisiae [2]; [9]
  protein stability index: 0.145 ± 0.04

## SLRSRSLRCRLS
Saccharomyces cerevisiae [1]
  protein stability index: 0.38 ± 0.005
Saccharomyces cerevisiae [2]; [3]
  protein stability index: 0.619 ± 0.056
Saccharomyces cerevisiae [2]; [4]
  protein stability index: 0.755 ± 0.024
Saccharomyces cerevisiae [2]; [5]
  protein stability index: 0.723 ± 0.0081
Saccharomyces cerevisiae [2]; [6]
  protein stability index: 0.749 ± 0.031
Saccharomyces cerevisiae [2]; [7]
  protein stability index: 0.288 ± 0.0071
Saccharomyces cerevisiae [2]; [8]
  protein stability index: 0.297 ± 0.0095
Saccharomyces cerevisiae [2]; [9]
  protein stability index: 0.489 ± 0.031
